Our source for the Kd values is patent US6127119, “Nucleic acid ligands of tissue target” (NeXstar Pharmaceuticals, Inc.).

Some results are limits rather than exact numbers.

In this data set the target is Fibrinogen (Homo sapiens, UniProt P02671-2;P02675;P02679-2 P02671-2:20-644,P02675:31-491,P02679-2:27-437). In words: filter; low class; printed l mM, probably uM; clone printed FCNB. The following applies: chain copies: 2.
Sequence of Fibrinogen (P02671 other isoform, or with tags, fused parts or gaps, chain 1 of 3): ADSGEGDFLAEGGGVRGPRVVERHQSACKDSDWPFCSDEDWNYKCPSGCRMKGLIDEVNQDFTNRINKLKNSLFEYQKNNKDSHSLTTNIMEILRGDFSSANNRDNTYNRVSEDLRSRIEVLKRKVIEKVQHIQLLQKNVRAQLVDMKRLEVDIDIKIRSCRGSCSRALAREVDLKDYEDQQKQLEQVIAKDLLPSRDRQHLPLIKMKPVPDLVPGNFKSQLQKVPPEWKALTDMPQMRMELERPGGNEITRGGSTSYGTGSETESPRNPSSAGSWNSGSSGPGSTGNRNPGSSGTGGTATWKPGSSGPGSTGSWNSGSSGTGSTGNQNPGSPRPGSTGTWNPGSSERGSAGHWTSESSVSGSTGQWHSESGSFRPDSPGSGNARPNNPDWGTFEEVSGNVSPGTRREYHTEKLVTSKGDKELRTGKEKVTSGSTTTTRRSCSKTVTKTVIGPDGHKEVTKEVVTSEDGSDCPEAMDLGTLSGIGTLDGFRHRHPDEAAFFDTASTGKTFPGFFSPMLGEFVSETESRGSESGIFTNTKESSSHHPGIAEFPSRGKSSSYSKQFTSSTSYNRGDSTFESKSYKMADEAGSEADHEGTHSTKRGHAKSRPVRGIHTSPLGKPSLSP
Sequence of Fibrinogen (P02675 31-491, chain 2 of 3): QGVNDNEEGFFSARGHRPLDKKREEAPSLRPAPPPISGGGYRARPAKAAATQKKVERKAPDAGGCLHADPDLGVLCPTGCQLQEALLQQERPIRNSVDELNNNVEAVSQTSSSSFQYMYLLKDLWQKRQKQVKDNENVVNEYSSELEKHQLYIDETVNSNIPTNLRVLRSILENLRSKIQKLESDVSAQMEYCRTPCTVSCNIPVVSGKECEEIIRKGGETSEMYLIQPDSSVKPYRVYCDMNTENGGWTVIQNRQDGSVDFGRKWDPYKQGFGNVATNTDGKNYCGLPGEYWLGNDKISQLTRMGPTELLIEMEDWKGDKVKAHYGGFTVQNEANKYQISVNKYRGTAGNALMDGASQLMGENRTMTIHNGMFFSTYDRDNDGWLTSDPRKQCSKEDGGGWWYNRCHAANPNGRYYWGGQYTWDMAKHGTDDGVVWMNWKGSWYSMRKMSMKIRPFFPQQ
Sequence of Fibrinogen (P02679 other isoform, or with tags, fused parts or gaps, chain 3 of 3): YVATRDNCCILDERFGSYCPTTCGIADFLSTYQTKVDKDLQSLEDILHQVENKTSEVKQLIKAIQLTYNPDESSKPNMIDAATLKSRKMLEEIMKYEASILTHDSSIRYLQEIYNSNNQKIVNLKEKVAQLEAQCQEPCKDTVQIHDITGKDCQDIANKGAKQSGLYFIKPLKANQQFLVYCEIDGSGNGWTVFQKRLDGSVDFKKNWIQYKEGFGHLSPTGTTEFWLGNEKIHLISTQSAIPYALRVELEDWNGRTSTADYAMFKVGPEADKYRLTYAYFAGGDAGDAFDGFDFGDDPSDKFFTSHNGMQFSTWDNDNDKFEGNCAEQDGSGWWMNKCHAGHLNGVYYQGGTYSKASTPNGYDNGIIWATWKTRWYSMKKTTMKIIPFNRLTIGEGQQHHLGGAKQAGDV

B1: FCN8 (ssRNA)
RNA: GGGAGAUAAGAAUAAACGCUCAAUAGCAAGUCCCACAUCCCAGACGGGCUAAAAAGAGGUGGAUUCGACAGGAGGCUCACAACAGGC
modifications: 2'-F pyrimidines
For orientation: Kd means the concentration at which binding is half-saturated. High values mean weaker binding, low ones tighter binding. B1 returned a Kd of more than 1000 nM.
